This is an account of results in patent US20200199241A1 (Chugai, published 2020).

As usually defined, the Kd is the free concentration of one partner at which half of the binding sites on the other are occupied at equilibrium, for simple one-to-one binding.

The chains are these.
T1: FcγRIIa type R (human, UniProt P12318 36-217)
T1 construct: also called FcγRIIaR; FcgRIIaR
T1 chain: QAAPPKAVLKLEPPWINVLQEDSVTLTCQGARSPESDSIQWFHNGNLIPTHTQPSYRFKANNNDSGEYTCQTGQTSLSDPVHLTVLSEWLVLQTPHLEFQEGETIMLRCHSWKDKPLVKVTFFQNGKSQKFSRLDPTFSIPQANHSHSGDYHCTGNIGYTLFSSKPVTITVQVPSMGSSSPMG

T2: FcγRIIa type H (human, UniProt P12318 36-217)
T2 construct: also called FcγRIIaH; FcγRIIH
T2 sequence: T1 chain with R133H

T3: FcγRIIb (human, UniProt P31994 43-217, limits assumed)
T3 construct: also called FcgRIIb; FcγIIB
T3 sequence: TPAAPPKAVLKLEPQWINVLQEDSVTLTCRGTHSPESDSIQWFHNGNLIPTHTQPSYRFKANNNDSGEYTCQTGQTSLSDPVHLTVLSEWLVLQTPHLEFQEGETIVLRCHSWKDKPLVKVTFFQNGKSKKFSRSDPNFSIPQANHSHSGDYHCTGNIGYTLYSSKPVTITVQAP

B1: IL6R-2B171/IL6R-L (antibody, human IgG1)
heavy: QVQLQESGPGLVKPSETLSLTCAVSGHSISHDHAWSWVRQPPGEGLEWIGFISYSGITNYNPSLQGRVTISRDNSKNTLYLQMNSLRAEDTAVYYCARSLARTTAMDYWGEGTLVTVSSASTKGPSVFPLAPSSKSTSGGTAALGCLVKDYFPEPVTVSWNSGALTSGVHTFPAVLQSSGLYSLSSVVTVPSSSLGTQTYICNVNHKPSNTKVDKKVEPKSCDKTHTCPPCPAPELLGGDSVFLFPPKPKDTLMISRTPEVTCVVVDVSHEDPEVKFNWYVDGVEVHNAKTKPREEQYNSTYRVVSVLTVLHQDWLNGKEYKCKLSNKALPAPIEKTISKAKGQPREPQVYTLPPSRDELTKNQVSLTCLVKGFYPSDIAVEWESNGQPENNYKTTPPVLDSDGSFFLYSKLTVDKSRWQQGNVFSCSVMHEALHNHYTQESLSLSP
light: DIQMTQSPSSLSASVGDRVTITCRASQDISSYLNWYQQKPGKAPKLLIYYTSRLHSGVPSRFSGSGSGTDFTFTISSLQPEDIATYYCQQGNTLPYTFGQGTKVEIK
notes: IgG1; Fc variant of IL6R-B3; copies: 2 + 2
B2: IL6R-2B172/IL6R-L (antibody, human IgG1)
heavy: B1 heavy with L325M
light: B1 light
notes: as for B1
B3: IL6R-BP116/IL6R-L (antibody, human IgG1)
heavy: B1 heavy with L325V, K328T
light: B1 light
notes: as for B1
B4: IL6R-BP103/IL6R-L (antibody, human IgG1)
heavy: B1 heavy with S269V, L325V
light: B1 light
notes: as for B1
B5: IL6R-BP102/IL6R-L (antibody, human IgG1)
heavy: B1 heavy with S269Q, L325V
light: B1 light
notes: as for B1
B6: IL6R-BP100/IL6R-L (antibody, human IgG1)
heavy: B1 heavy with S269A, L325V
light: B1 light
notes: as for B1

Residue numbers refer to the chain shown, from its start.

T4 sequence (P12314 16-292 limits assumed): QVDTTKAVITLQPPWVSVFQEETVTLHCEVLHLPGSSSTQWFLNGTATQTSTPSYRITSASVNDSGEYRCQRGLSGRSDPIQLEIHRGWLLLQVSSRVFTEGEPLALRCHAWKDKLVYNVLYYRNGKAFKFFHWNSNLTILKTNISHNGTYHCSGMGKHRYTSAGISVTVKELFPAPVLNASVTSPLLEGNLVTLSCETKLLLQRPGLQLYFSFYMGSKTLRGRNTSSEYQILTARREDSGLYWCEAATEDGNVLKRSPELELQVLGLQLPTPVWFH

One assay has as its target T4, FcγRIa (human, UniProt P12314 16-292, limits assumed).
T4 construct: also called FcgRIa; CD64
The experiment in a line: SPR (Biacore), FcγR over captured antibody. For orientation: SPR reads the build-up and loss of mass on a sensor chip optically.
B1 showed an equilibrium dissociation constant (Kd) of 0.0091 µM.

Turning to B2, binding was put at a Kd of 0.003 µM.

B3 gave a Kd of 0.0026 µM.

In the case of B4, the dissociation constant Kd is 0.035 µM.

Turning to B5, the affinity, expressed as Kd, was 0.0082 µM.

The molecule B6 registered a Kd of 0.0011 µM.

The target in the next assay is T1, FcγRIIa type R. The assay can be described thus: SPR (Biacore), FcγR over captured antibody.
B1 registered a Kd of 16 µM. This counts as double-digit micromolar.

B2 gave a dissociation constant (Kd) of 6.1 µM.

In turn, B3 showed a dissociation constant Kd of 15 µM.

The molecule B4 displayed a Kd of 11 µM.

Take B5: binding was put at a Kd of 8.4 µM. This Kd and that of the molecule before are within 1.5-fold of each other.

Molecule B6 came in with an equilibrium dissociation constant (Kd) of 7.8 µM.

For a further assay, the target named is T2, FcγRIIa type H. The experiment in a line: SPR (Biacore), FcγR over captured antibody.
In turn, B1 showed a Kd of 34 µM.

In the case of B2, the dissociation constant (Kd) amounted to 21 µM.

Molecule B3 showed a dissociation constant Kd of 54 µM.

B4 yielded a Kd of 88 µM.

Regarding B5, the Kd stood at 61 µM.

B6 yielded a Kd of 46 µM.

The target in a further assay is T3, FcγRIIb. The experiment in a line: SPR (Biacore), FcγR over captured antibody.
With B1, the Kd came to 1.1 µM.

Consider B2, for which binding was characterised by a dissociation constant (Kd) of 0.77 µM.

B3 returned a Kd of 1.1 µM.

Turning to B4, the Kd was 1.2 µM.

Molecule B5 yielded a Kd of 0.9 µM.

On to B6, for which binding was characterised by a dissociation constant (Kd) of 1.1 µM.

The target in another assay is T5, FcγRIIIa type V (human, UniProt P08637 17-208, limits assumed).
T5 construct: also called FcγRIIIaV; FcgRIIIaV
T5 sequence (P08637 other isoform, or with tags, fused parts or gaps limits assumed): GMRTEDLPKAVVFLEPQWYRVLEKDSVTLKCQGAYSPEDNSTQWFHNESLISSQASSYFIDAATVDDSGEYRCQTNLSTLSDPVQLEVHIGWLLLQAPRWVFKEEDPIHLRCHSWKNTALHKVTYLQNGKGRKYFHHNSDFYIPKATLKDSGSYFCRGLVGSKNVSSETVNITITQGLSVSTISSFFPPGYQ
The experiment in a line: SPR (Biacore), FcγR over captured antibody.
The molecule B1 yielded a Kd of 57 µM. In other words, the double-digit micromolar range.

On to B2, for which the Kd was 48 µM.

B3 showed a dissociation constant (Kd) of 72 µM. This Kd lies about 1.5-fold higher than the previous one.

The molecule B4 yielded a dissociation constant Kd of 110 µM. Against the preceding molecule, the Kd is about 1.5-fold higher.

For the molecule B5, binding was put at a Kd of 82 µM.

Turning to B6, the dissociation constant (Kd) was 59 µM.

In a further assay the target is T3, FcγRIIb. The experiment in a line: SPR (Biacore), KD of IL6R-B3/IL6R-L divided by KD of the variant.
From the text: Furthermore, KD(IIaR)/KD(IIb) and KD(IIaH)/KD(IIb) in the table respectively represent the value obtained by dividing the KD value of each variant for FcγRIIaR by the KD value of each variant for FcγRIIb, and the value obtained by dividing the KD value of each variant for FcγRIIaH by the KD value of each variant for FcγRIIb. KD(IIb) of the parent polypeptide/KD(IIb) of the altered polypeptide refers to the value obtained by dividing the KD value of the parent polypeptide for FcγRIIb by the KD value of each variant for FcγRIIb.
Take B1: the “KD(IIb) of the parent polypeptide/KD(IIb) of altered polypeptide” value (from here on “KD(IIb) … of altered polypeptide”) stood at 2.9 fold.

In the case of B2, the “KD(IIb) … of altered polypeptide” value came to 4 fold.

Take B3: the “KD(IIb) … of altered polypeptide” value stood at 2.8 fold.

B4: the “KD(IIb) … of altered polypeptide” value came out at 2.5 fold.

Take B5: the “KD(IIb) … of altered polypeptide” value stood at 3.4 fold.

As to B6, the “KD(IIb) … of altered polypeptide” value came to 2.9 fold.

For the next assay, the target named is T3, FcγRIIb. The assay can be described thus: SPR (Biacore); KD for FcγRIIaH divided by KD for FcγRIIb of the same antibody.
From the text: Furthermore, KD(IIaR)/KD(IIb) and KD(IIaH)/KD(IIb) in the table respectively represent the value obtained by dividing the KD value of each variant for FcγRIIaR by the KD value of each variant for FcγRIIb, and the value obtained by dividing the KD value of each variant for FcγRIIaH by the KD value of each variant for FcγRIIb.
B1: the “KD(IIaH)/KD(IIb)” value stood at 31.8.

For the molecule B2, the “KD(IIaH)/KD(IIb)” value is 27.3.

B3: the “KD(IIaH)/KD(IIb)” value is 48.2.

As for B4, the “KD(IIaH)/KD(IIb)” value is 71.5.

Take B5: the “KD(IIaH)/KD(IIb)” value was found to be 67.6.

B6: the “KD(IIaH)/KD(IIb)” value is 42.6.

Another assay addresses T3, FcγRIIb. The experiment in a line: SPR (Biacore); KD for FcγRIIaR divided by KD for FcγRIIb of the same antibody.
As for B1, the “KD(IIaR)/KD(IIb)” value is 15.

For B2, the “KD(IIaR)/KD(IIb)” value was found to be 8.

Regarding B3, the “KD(IIaR)/KD(IIb)” value was determined as 13.3.

Consider B4, for which the “KD(IIaR)/KD(IIb)” value came out at 9.

For the molecule B5, the “KD(IIaR)/KD(IIb)” value came out at 9.4.

With B6, the “KD(IIaR)/KD(IIb)” value worked out at 7.3.
